# Experiment: soluble on expression in E. coli; label from the status in PepcDB or PDB records
row,Sequence,soluble on expression in E. coli
1,MGSDKIHHHHHHMLRLSEIKLPLDHPPEAITTAILQKLKIQADELLGYEIFKRSYDARKKDAIVWVYILDLKVKNEAQLLKRFQKDPHVNPTPDMSYRVVAQAPEGLTERPVVIGAGPCGMFAALTLAQMGFRPILFERGKTVRDRTADTFAFWKKRGEFNPESNAQFGEGGAGTFSDGKLYSQVRDPQYYGRKVLTELVNSGANPEILYVNKPHIGTFKLVGVVQQMRARIEALGGEIHFQSRVESLHIEDRQVRGLRLTNGDYIPARHVVLAIGHSARDTFQMLFDQGVYIEAKPFSIGFRIEHPQPLIDRARFGPFAGHKSLGAADYKLVHHCQNGRTVYSFCMCPGGLVVAATSEPGRVVTNGMSQYSRNERNANSGIVVGITPEDYPGHPLAGIDLQRRLEAKAFELGGGTYEAPGQLVGDFLAGRPSQHLGTVRPSYAPGVHLTDLSESLPDYAIAAIREALPAFNRQIQGFALPDAMLTGVETRTSSPVRIKRGEDFQSLNTTGLFPAGEGAGYAGGILSAGIDGIKVAEAVALAMLRSQPQTV,not soluble
2,MGSDKIHHHHHHMLKEAISYSIADESVRIVQVTDPHLFADPEAQLLGVNTSKSLAAVLNTIRAVNYPAHLLLATGDLSQDYSPESYRQFVSAVAPLNLPCHYLPGNHDDPRIMFLHMQGERVFGQQRILVGKWQILMLDSTVRGKPGGHMGEGQFELIEQAIAAHPEHHTLLVMHHNPILVNCAWLDQHCMDNGAEFLRRVAQYPQVKALLWGHVHQQLDTYYDGPHRALQLMATPSTCIQFKPQSPYFALDGLQPGYRLLELKADGSISTNVYRVPGNLFSPDKDSSGY,not soluble
3,MGSDKIHHHHHHMNVLLSRKDTIRFLILSELMVNPECNQRDIAKKLGLTPQAISEHFKEMVSEGFINVVHKGYYEVTRKGEEWMSRNLIDLHLFSEELLKKIYSKTVVAIAKGRIAENDSVRYWFGDGYIFAERSAKGNGVALTSAEDGEDVLIKPTGSFEPPEKGEIIIVKVPGVAEGGSRKVDLDSFRELVKSRPTSIVVAIGIEALVTCRKIRVEPIFFGAKEVCIEAAHHGSGVIVACTESMLNDLLRSLIDEGLEFEIKEFVKAT,not soluble
4,MVPAAQQTATAPDAALTFPEGFLWGSATASYQIEGAAAEDGRTPSIWDTYARTPGRVRNGDTGDVATDHYHRWREDVALMAELGLGAYRFSLAWPRIQPTGRGPALQKGLDFYRRLADELLAKGIQPVATLYHWDLPQELENAGGWPERATAERFAEYAAIAADALGDRVKTWTTLNEPWCSAFLGYGSGVHAPGRTDPVAALRAAHHLNLGHGLAVQALRDRLPADAQCSVTLNIHHVRPLTDSDADADAVRRIDALANRVFTGPMLQGAYPEDLVKDTAGLTDWSFVRDGDLRLAHQKLDFLGVNYYSPTLVSEADGSGTHNSDGHGRSAHSPWPGADRVAFHQPPGETTAMGWAVDPSGLYELLRRLSSDFPALPLVITENGAAFHDYADPEGNVNDPERIAYVRDHLAAVHRAIKDGSDVRGYFLWSLLDNFEWAHGYSKRFGAVYVDYPTGTRIPKASARWYAEVARTGVLPTA,soluble
5,MPLEGEYEPSPTQWVRDQVELYESSGGTKGTTLMDTGLPVIILTTLGAKSGKIRKTPLMRVEHDGKYAAVASLGGAPKHPVWYYNVLGTPAVELQDGAVRKEFTAREVTGEEKAQWWERAVAAYPPYAEYQEKTDREIPVFVLEPAG,not soluble
6,AIAGCLFSVPEGGYLEVNEERSAGAYDSLSTASGIDDLHDERQPKAAYSMEDSSADLVAEDGAAVHQEVLNAHDDAWCRFDATSDATNEGAAAGGIGAPPSPLDLSLDSVVQQAYQDRVLVVFSGKAFGIALQLQMHWAALGASSAAPECVMDACVPESLLRAVHACLRAHMHACERIANRWNPDSELSAACSSAHPKKAVEVGTILYALLAEAHRLHRVTGGRFDPTCGALWRGFRATLRSSALQRPPQGRAFST,soluble
7,MSVVEEATDDALYPIAVLIDELRNEDVTLRLNSIRKLSTIALALGVERTRNELIQFLTDTIYDEDEVLLVLAEQLGNFTPLVGGPDHVHCLLLPLENLATVEETVVRDKAVESLRKIADKHSSASLEEHFVPMLRRLATGDWFTSRTSACGLFSVVYPRVSPAIKSELKSMFRTLCRDDTPMVRRAAAAKLGEFAKVFEKTAVIEGLHSSLTDLHVDEQDSVRLLTVESAIAFGTLLDKANKKKLIEPILIELFDDKSWRVRYMVAEKLIEIQNVLGEDMDTTHLVNMYTNLLKDPEGEVRCAATQRLQEFALNLPEDKRQNIICNSLLNVAKELVTDGNQLVKSELAGVIMGLAPLIGKEQTVSELLPIYMQLLNDQTPEVRLNIISSLDKVNEVIGAAQLSTSLLPAIVGLAEDGKWRVRLAIVQFMPLLASQLGQEFFDEKLLPLCLNWLTDHVFSIREASTLIMKELTQKFGGQWASTNIVPKMQKLQKDTNYLQRMTCLFCLNTLSEAMTQEQILKEIMPIVKDLVEDDVPNVRFNAAKSLKRIGKNLTPSTLTSEVKPLLEKLGKDSDFDVRYFSEEAKNSLGL,not soluble
8,MGSDKIHHHHHHASCDKFDEINTDPDATTKVTSSLLATGLLLDITSSSASKSFIYDELLAKQMAWGESMEDYQYNVFGRSGFGGYTTLINAQKMVESVSDDNVNAYDGLAHFIKAYKIFYMSMEMGDLPYEEALQGELGLVRPKYNTQKEVMNFILSDLETAYELFSTAKDFDGDPILGGSISKWKKATTAFQLKVLMHLSKKESDADLKVKERFARIVASGSLMESNEDNLQMKYADKANTVYPFHNTNTKHAGYAMLSTMLIDKFKATGDIRMFYYAKPAKAKLNEGVTADSWDAYIGTDPSLPFEQIEKAYATEQYSGFNARYTDYPSGEPVVRLGYAEQNFILAEAAVRGWISGDASAYYKKAIRAHMEFIASNTPDEEVYHHGHPITEEAIAAFLETPAIQLSGEKEEDIEKILTQRYLASFMQHPYDVYYDYRRTGYPVLPINPATNRNTMNDRLPMRWMYPKSESDYNLEHQNEALERQFGGVDDVNKLMWILQ,not soluble
9,MGSDKIHHHHHHMGKYQDSKKVVRNYFEALENATGDEVENVLKQHMKSDYNWKGVYPFREQEGTENVADVFWKPLKKSLSNMQRRQDIFIAGTNEIDNSEWVMSMGHFMGLFDNDWLGIKHTRKMISLRYAEFNCVQDGKIAKTGLFVDIIGFMIQAGVNPLPPQTGSYFVYPGPIDHNGLLFEDADEVEGVKTLALVNKMVDDLSELNESGAMGCPPEILEKSWAKDMIWYGPGGIGASYTIPRYQEQHQLPFRNNLKGKTFNGHVCRFAEGNFACFFGWPNLTNVPCGGFLGLPGGEVKADMQVVDVYYRKGDKLQENWVLIDIPYWLKQQGLDILERTKSIFNA,not soluble
10,MARRNSSIKPVFCFFAEFCMVSTSLWMDTEILPEASALKGDVHCDVAVVGSGIAGLSTAYELSKRDQSVIVIDRKGIASGMTARTSAHLAPLCDDLMSEFRKLRGPEIAKLFYESQAAAVDRIEEIQASETIACDFRRLDGYLFQGHGMPADVLDEELEAVREVGAPVHRLVGVPLKGCENRHVLRYPRQATFHPLKYLAGVAAVCQTHGVRFFANSPVEEVAQGDGDVTLRTAQGQITAGNAVIATNASITDRYQLHSKVAPYRTYVLAFAIARGELPDALYWDTEDPYHYVRLQLGSDDHDVVLIGGEDHKSGEANDAEKRFAKLESWARELIPGLGRVTHRWSGQVLDTIDYAGFIGREPGSERIYLAMGDSGQGLTHGVMGAMLNTSLILGEHNPWSAVYAPGRTPLAAARNFLRENLTILQNLAEYVAPGEIASLEKIEPSEGAILRRGFEKIAAYRDKAGELHLHSASCTHIGCHLHWNSFETCWDCPCHGSIFAPNGQPINAPAVSALRPVKVLEHHHHHH,not soluble
11,MGSDKIHHHHHHMTKPMHTPPLVPPQAWEAAREQLLVKEKALTRARDALAAERRQMPWMAVEKEYAFEGPEGRVSLVDLFEGRRQLIVYRAFFEPGVFGWPDHACRGCSMVADQVAHLAHLNARDTTLVFVSRAPQADIARLKARMGWQIPWFTVTDSFDADFGVDEWHGTNVFYRDGDRVFRTYFINNRGDEQMGSTWNYLDITPLGRQEVWEDSPEGYPQTPTYKWWNWHDSYVKDAEPDKKWVEVSDAGEAAFRNQD,not soluble
12,MGSNTLLCAKWLRGLRPRSRVNPLLNRALAAVGAGSPAKGRQAAPLAPIPRSSPVKALDQLTFDNRFARLGDAFSTQVLPEPIADPRLVVASESAMALLDLDPAQAELPVFAELFSGHKLWEEADPRAMVYSGHQFGSYNPRLGDGRGLLLAEVLNDAGEHWDLHLKGAGQTPYSRMGDGRAVLRSSIREFLASEALHALGIATSRALCVIGSSTPVWRETRESAAMLTRLAQSHVRFGHFEYFYYTKQPEQQRVLIDHVLEQHYPECREAEQPYLAMFRTIVERNAELIARWQAYGFCHGVMNTDNMSILGITFDFGPYAFLDDFDANFICNHSDDRGRYSYANQVPIAHWNLSALAQALTTVIEVEPLKEALGLFLPLYQAHYLDLMRRRLGLTTAEDDDMVLVERLLQCMQRGGVDYSLFFRKLGEQPVAEALKVARDDFIDLAGFDAWGADYLARCGREPGNAEGRRERMHAVNPLYVLRNYLAQKAIEAAEAGDYSEVRRLHQVLARPFEEQPGMQAYAERPPEWGKHLEISCSSLEHHHHHH,soluble
13,MGPVFVVGQIDEMVPHPDSDHLNICQVNIGDKKVQIVAGAPNASPGLKTIVALPGAMMPSGALIFPGKLRGEDSYGMMCSPRELALPNAPQKRGIIELDDSAVVGEALEHHHHHH,not soluble
14,MSLRKIHVTIIAPYEGLAETFKRIQNEFEHLDMTIHIADLQQSLPLLTTEVQAQTDIFISRGGTAKVIRTRTEKPVVEVPISGFDILRMILLIQAEREQTEIIAFENISLSFTKVTELIETDIPITAVMKEEEVEPAIIAAKAAGRKMIVGDAITTSLANKHGLEGILITSGEESVRTALEQADLLGRKMNDSKQEGHHHHHH,soluble
15,MAEEQQNSDQSNGGNVIPTPEEVATFLHKTVEEGGWEKCWEEEITPWDQGRATPLIVHLVDTSSLPLGRALVPGCGGGHDVVAMASPERFVVGLDISESALAKANETYGSSPKAEYFSFVKEDVFTWRPTELFDLIFDYVFFCAIEPEMRPAWAKSMYELLKPDGELITLMYPITDHVGGPPYKVDVSTFEEVLVPIGFKAVSVEENPHAIPTRKGKEKLGRWKKINLEHHHHHH,soluble
16,MAHHHHHHMLQPFQLLQSLVSPIVGVSAKVTVGNQAKDDFLLKTLAIDKKKLDPSYFEKYDNLKWEGKIIAIGDIHGDMESLKLILRHANLINENDEWIAENVLLVQVGDVLDRGIYGPLIYNYLFKLQKEAPLKKSKVLLIMGNHEQLNMCGYFNYVNQKEVEIFFKNNFNYRLFHFVSTAGEYFKKLIRLPVIAKVNDILFVHAGISKQISSLSLQTIRLKTRLQIENMCKILSYDKSRDYVNREGVLWYDHVSRTAPYDEKQACAILSHVFNKYGAKHLVVGHTKQMTHEISTYCNGGLFLIDTGMSLFMNNGQPYPNYLVAENGIFKSVHLNVEVNKKSKYCDSLEIELRSPNKQSFCIHAKETLLSPPNGG,not soluble
17,MAESLLIKDIAIVTENEVIKNGYVGINDGKISTVSTERPKEPYSKEIQAPADSVLLPGMIDIHIHGGYGADTMDASFSTLDIMSSRLPEEGTTSFLATTITQEHGNISQALVNAREWKAAEESSLLGAELLGIHLEGPFVSPKRAGAQPKEWIRPSDVELFKKWQQEAGGLIKIVTLAPEEDQHFELIRHLKDESIIASMGHTDADSALLSDAAKAGASHMTHLYNAMSPFHHREPGVIGTALAHDGFVTELIADGIHSHPLAAKLAFLAKGSSKLILITDSMRAKGLKDGVYEFGGQSVTVRGRTALLSDGTLAGSILKMNEGARHMREFTNCSWTDIANITSENAAKQLGIFDRKGSVTVGKDADLVIVSSDCEVILTICRGNIAFISKEADQI,soluble
